Results reported in the supplement of paper PMC9112550, “Optimization of the antimicrobial peptide Bac7 by deep mutational scanning” (BMC Biology, 2022).

Test system: Escherichia coli TOP10
Assay: shrunken log2 fold change of peptide-encoding DNA abundance (4.5 h post-induction vs induction); higher = less antimicrobial activity (less host growth inhibition)
Conditions: time post-induction: 4.5 h; library: site-saturation at positions 5, 18, 19, 20
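Also: peptides expressed intracellularly from a pBAD plasmid library in pooled LB shake-flask culture, induced with 0.3% L-arabinose, DNA abundance read by NGS, three biological replicates, DESeq2 with apeglm shrinkage.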

In order of falling “shrunken log2 fold change” value:
1. RRIRPRPPRLPRPRPRPRQEPRP  3.83
2. RRIRKRPPRLPRPRPRPVLWPRP  1.78
3. RRIRWRPPRLPRPRPRPLQKPRP  1.73
4. RRIRRRPPRLPRPRPRPDPAPRP  1.18
5. RRIRDRPPRLPRPRPRPTFDPRP  0.853
6. RRIRVRPPRLPRPRPRPMMRPRP  0.837
7. RRIRARPPRLPRPRPRPMRNPRP  0.756
8. RRIRQRPPRLPRPRPRPPRHPRP  0.644
9. RRIRWRPPRLPRPRPRPRWPPRP  0.598
10. RRIRARPPRLPRPRPRPVCVPRP  0.579
11. RRIRTRPPRLPRPRPRPLEIPRP  0.554
12. RRIRRRPPRLPRPRPRPCCPPRP  0.467
13. RRIRRRPPRLPRPRPRPSRPPRP  0.464
14. RRIRQRPPRLPRPRPRPRMTPRP  0.388
15. RRIRDRPPRLPRPRPRPERFPRP  0.361
16. RRIRRRPPRLPRPRPRPWRRPRP  0.358
17. RRIRGRPPRLPRPRPRPIKVPRP  0.356
18. RRIRVRPPRLPRPRPRPRRWPRP  0.334
19. RRIRRRPPRLPRPRPRPTTHPRP  0.306
20. RRIRLRPPRLPRPRPRPPKGPRP  0.306
21. RRIRHRPPRLPRPRPRPHAAPRP  0.292
22. RRIRGRPPRLPRPRPRPMYEPRP  0.282
23. RRIRRRPPRLPRPRPRPAIMPRP  0.275
24. RRIRRRPPRLPRPRPRPGMCPRP  0.269
25. RRIRARPPRLPRPRPRPLVRPRP  0.264
26. RRIRRRPPRLPRPRPRPKKSPRP  0.237
27. RRIRMRPPRLPRPRPRPSSYPRP  0.236
28. RRIRNRPPRLPRPRPRPGLMPRP  0.235
29. RRIRNRPPRLPRPRPRPLPQPRP  0.229
30. RRIRDRPPRLPRPRPRPTCDPRP  0.224
31. RRIRWRPPRLPRPRPRPKKGPRP  0.22
32. RRIRPRPPRLPRPRPRPIFFPRP  0.211
33. RRIRLRPPRLPRPRPRPVLQPRP  0.195
34. RRIRWRPPRLPRPRPRPKMKPRP  0.193
35. RRIRTRPPRLPRPRPRPGNRPRP  0.192
36. RRIRTRPPRLPRPRPRPVDAPRP  0.188
37. RRIRMRPPRLPRPRPRPHQTPRP  0.184
38. RRIRSRPPRLPRPRPRPCETPRP  0.18
39. RRIRGRPPRLPRPRPRPHYCPRP  0.167
40. RRIRPRPPRLPRPRPRPYCTPRP  0.164
41. RRIRRRPPRLPRPRPRPKDVPRP  0.159
42. RRIRSRPPRLPRPRPRPCCYPRP  0.145
43. RRIRLRPPRLPRPRPRPCGLPRP  0.142
44. RRIRWRPPRLPRPRPRPVTAPRP  0.138
45. RRIRGRPPRLPRPRPRPCRFPRP  0.116
46. RRIRYRPPRLPRPRPRPEMWPRP  0.0929
47. RRIRGRPPRLPRPRPRPIMCPRP  0.0901
48. RRIRPRPPRLPRPRPRPSFQPRP  0.0876
49. RRIRWRPPRLPRPRPRPVKHPRP  0.0838
50. RRIRGRPPRLPRPRPRPQGKPRP  0.0794
51. RRIRRRPPRLPRPRPRPHTWPRP  0.0615
52. RRIRKRPPRLPRPRPRPIMWPRP  0.0599
53. RRIRLRPPRLPRPRPRPTFRPRP  0.0593
54. RRIRLRPPRLPRPRPRPPFQPRP  0.0582
55. RRIRVRPPRLPRPRPRPPAYPRP  0.0576
56. RRIRDRPPRLPRPRPRPFVAPRP  0.0541
57. RRIRARPPRLPRPRPRPWAPPRP  0.0486
58. RRIRFRPPRLPRPRPRPAFCPRP  0.0477
59. RRIRPRPPRLPRPRPRPVDMPRP  0.0425
60. RRIRGRPPRLPRPRPRPCLSPRP  0.0424
61. RRIRERPPRLPRPRPRPRVHPRP  0.0407
62. RRIRCRPPRLPRPRPRPLPCPRP  0.0339
63. RRIRNRPPRLPRPRPRPYMIPRP  0.0323
64. RRIRKRPPRLPRPRPRPWVNPRP  0.0319
65. RRIRRRPPRLPRPRPRPYQFPRP  0.0273
66. RRIRDRPPRLPRPRPRPCLNPRP  0.0235
67. RRIRARPPRLPRPRPRPGHIPRP  0.0195
68. RRIRARPPRLPRPRPRPAYFPRP  0.0133
69. RRIRKRPPRLPRPRPRPQHTPRP  0.0113
70. RRIRVRPPRLPRPRPRPNVGPRP  0.00661
71. RRIRFRPPRLPRPRPRPHAIPRP  0.00598
72. RRIRSRPPRLPRPRPRPTVMPRP  0.00504
73. RRIRNRPPRLPRPRPRPCKCPRP  0.00489
74. RRIRTRPPRLPRPRPRPVQMPRP  0.000776
75. RRIRTRPPRLPRPRPRPDDDPRP  -0.00136
76. RRIRPRPPRLPRPRPRPDQGPRP  -0.0018
77. RRIRIRPPRLPRPRPRPRHFPRP  -0.00457
78. RRIRNRPPRLPRPRPRPREWPRP  -0.00528
79. RRIRHRPPRLPRPRPRPKWDPRP  -0.00576
80. RRIRVRPPRLPRPRPRPYDGPRP  -0.00822
81. RRIRWRPPRLPRPRPRPNMHPRP  -0.00977
82. RRIRLRPPRLPRPRPRPQLGPRP  -0.0132
83. RRIRRRPPRLPRPRPRPLPYPRP  -0.0149
84. RRIRYRPPRLPRPRPRPIGLPRP  -0.0167
85. RRIRPRPPRLPRPRPRPNVVPRP  -0.0229
86. RRIRSRPPRLPRPRPRPMTWPRP  -0.0238
87. RRIRFRPPRLPRPRPRPHCWPRP  -0.0304
88. RRIRQRPPRLPRPRPRPFTKPRP  -0.0312
89. RRIRWRPPRLPRPRPRPNGEPRP  -0.0407
90. RRIRQRPPRLPRPRPRPNPSPRP  -0.042
91. RRIRHRPPRLPRPRPRPCARPRP  -0.0479
92. RRIRDRPPRLPRPRPRPCPKPRP  -0.048
93. RRIRNRPPRLPRPRPRPDKRPRP  -0.0491
94. RRIRGRPPRLPRPRPRPNDSPRP  -0.0552
95. RRIRTRPPRLPRPRPRPMVPPRP  -0.0651
96. RRIRQRPPRLPRPRPRPMEVPRP  -0.0855
97. RRIRSRPPRLPRPRPRPHFVPRP  -0.0872
98. RRIRIRPPRLPRPRPRPMMQPRP  -0.0907
99. RRIRERPPRLPRPRPRPDEPPRP  -0.0946
100. RRIRNRPPRLPRPRPRPCVRPRP  -0.109
101. RRIRKRPPRLPRPRPRPKWIPRP  -0.111
102. RRIRQRPPRLPRPRPRPWCVPRP  -0.115
103. RRIRFRPPRLPRPRPRPCHWPRP  -0.127
104. RRIRHRPPRLPRPRPRPCRRPRP  -0.131
105. RRIRLRPPRLPRPRPRPWSCPRP  -0.136
106. RRIRYRPPRLPRPRPRPITIPRP  -0.149
107. RRIRPRPPRLPRPRPRPNGIPRP  -0.153
108. RRIRWRPPRLPRPRPRPSGVPRP  -0.158
109. RRIRLRPPRLPRPRPRPYHYPRP  -0.16
110. RRIRNRPPRLPRPRPRPYDLPRP  -0.166
111. RRIRFRPPRLPRPRPRPWCRPRP  -0.172
112. RRIRFRPPRLPRPRPRPFRMPRP  -0.173
113. RRIRPRPPRLPRPRPRPILVPRP  -0.178
114. RRIRERPPRLPRPRPRPTMNPRP  -0.19
115. RRIRFRPPRLPRPRPRPTLIPRP  -0.19
116. RRIRERPPRLPRPRPRPPMFPRP  -0.203
117. RRIRLRPPRLPRPRPRPLFPPRP  -0.203
118. RRIRLRPPRLPRPRPRPDTIPRP  -0.21
119. RRIRQRPPRLPRPRPRPKNQPRP  -0.214
120. RRIRPRPPRLPRPRPRPHFYPRP  -0.217
121. RRIRWRPPRLPRPRPRPVVYPRP  -0.228
122. RRIRCRPPRLPRPRPRPNCDPRP  -0.233
123. RRIRVRPPRLPRPRPRPRSDPRP  -0.258
124. RRIRFRPPRLPRPRPRPCLFPRP  -0.264
125. RRIRVRPPRLPRPRPRPDDYPRP  -0.272
126. RRIRMRPPRLPRPRPRPSYIPRP  -0.275
127. RRIRERPPRLPRPRPRPLLLPRP  -0.305
128. RRIRCRPPRLPRPRPRPIGHPRP  -0.312
129. RRIRHRPPRLPRPRPRPEYNPRP  -0.329
130. RRIRARPPRLPRPRPRPLFIPRP  -0.331
131. RRIRMRPPRLPRPRPRPNVHPRP  -0.333
132. RRIRCRPPRLPRPRPRPHELPRP  -0.336
133. RRIRMRPPRLPRPRPRPYNIPRP  -0.358
134. RRIRIRPPRLPRPRPRPWMRPRP  -0.37
135. RRIRPRPPRLPRPRPRPHCLPRP  -0.374
136. RRIRFRPPRLPRPRPRPSWVPRP  -0.393
137. RRIRWRPPRLPRPRPRPNHFPRP  -0.429
138. RRIRIRPPRLPRPRPRPNQVPRP  -0.429
139. RRIRDRPPRLPRPRPRPNYAPRP  -0.457
140. RRIRYRPPRLPRPRPRPSPEPRP  -0.458
141. RRIRIRPPRLPRPRPRPRIKPRP  -0.466
142. RRIRSRPPRLPRPRPRPMFSPRP  -0.49
143. RRIRFRPPRLPRPRPRPGSNPRP  -0.624
144. RRIRERPPRLPRPRPRPWFLPRP  -0.628
145. RRIRIRPPRLPRPRPRPSKNPRP  -0.76
146. RRIRHRPPRLPRPRPRPSNDPRP  -0.849
147. RRIRYRPPRLPRPRPRPKHSPRP  -0.875
148. RRIRIRPPRLPRPRPRPNSKPRP  -0.899
149. RRIRYRPPRLPRPRPRPQHVPRP  -1.14
150. RRIRCRPPRLPRPRPRPDYVPRP  -1.26
